Results taken from US20230348616A1 (MIE UNIVERSITY, published 2023).

Tests used:
Assay in all cases: flow cytometry on peptide-pulsed T2 cells, scFv 100 nM
1F = target: T1, 1F
T1 construct: also called HLA-A2 / point-mutant NY-ESO peptide 1F complex on T2 cells
Method: (§1) The resultant was washed two times in the AIM-V medium containing 20% FBS, the concentration thereof was adjusted to an adequate level with PBS containing 5% FBS, the LIVE/DEAD Fixable Dead Cell Stain Kit (Thermo Fisher Scientific) was added thereto, and the resultant was allowed to stand at 4° C. for 30 minutes. The cells were washed 2 times in PBS containing 5% FBS, the washed cells were divided into two groups, the cells in PBS containing 5% FBS were seeded on a 96-well U-bottom microplate at 10⁵ cells/well, and the plate was subjected to centrifugation, followed by removal of the supernatant. Anti-HLA/NY-ESO scFv diluted to 100 nM with PBS containing 5% FBS was added at 25 μl/well to one of the divided cells, and the resultant was allowed to stand at 4° C. for 30 minutes. The cells were washed 2 times in PBS containing 5% FBS, Penta-His Alexa Fluor488 (QIAGEN) diluted in PBS containing 5% FBS was added at 25 μl/well, and the resultant was allowed to stand at 4° C. for 30 minutes. The cells were washed 2 times in PBS containing 5% FBS, Anti-mouse-IgG Alexa Fluor488 (Thermo Fisher Scientific) diluted in PBS containing 5% FBS was added at 25 μl/well, and the resultant was allowed to stand at 4° C. for 30 minutes. The cells were washed 2 times in PBS containing 5% FBS, immobilized with Mildform 10 N (FUJIFILM Wako Pure Chemical Corporation) overnight, and resuspended in PBS containing 5% FBS. […] The cells were washed 2 times in PBS containing 5% FBS, immobilized with Mildform 10 N (FUJIFILM Wako Pure Chemical Corporation) overnight, and resuspended in PBS containing 5% FBS. The cell suspensions were subjected to detection using a flow cytometer (CantoII, Becton Dickinson). […] The standardized gMFI indicating the binding affinity of each scFv standardized with the amount of the HLA/peptide complex on the T2 cells was determined in accordance with the following equation.

2M = target: T2, 2M
T2 construct: also called HLA-A2 / point-mutant NY-ESO peptide 2M complex on T2 cells
Method: as §1

3A = target: T3, 3A
T3 construct: also called HLA-A2 / point-mutant NY-ESO peptide 3A complex on T2 cells
Method: as §1

4A = target: T4, 4A
T4 construct: also called HLA-A2 / point-mutant NY-ESO peptide 4A complex on T2 cells
Method: as §1

6L = target: T5, 6L
T5 construct: also called HLA-A2 / point-mutant NY-ESO peptide 6L complex on T2 cells
Method: as §1

7F = target: T6, 7F
T6 construct: also called HLA-A2 / point-mutant NY-ESO peptide 7F complex on T2 cells
Method: as §1

8A = target: T7, 8A
T7 construct: also called HLA-A2 / point-mutant NY-ESO peptide 8A complex on T2 cells
Method: as §1

9A = target: T8, 9A
T8 construct: also called HLA-A2 / point-mutant NY-ESO peptide 9A complex on T2 cells
Method: as §1

5A = target: T9, 5A
T9 construct: also called HLA-A2 / point-mutant NY-ESO peptide 5A complex on T2 cells
Method: as §1

Binder	standardized gMFI (1F)	standardized gMFI (2M)	standardized gMFI (3A)	standardized gMFI (4A)	standardized gMFI (6L)	standardized gMFI (7F)	standardized gMFI (8A)	standardized gMFI (9A)	standardized gMFI (5A)
NYA-2044 (scFv, also called NYA-2044 tag adduct) scFv: GEVQLVESGGGLVQPGGSLRLSCAASGFSIRSYDIHWVRLAPGKGLEWVATISYDGSQKYYADSVKGRFTISRDESKNTLYLQMNSLRAEDTAVYHCARGSSGHYEAFDIWGQGTLVTVSSGGGGSGGGGSGGGGSQSVLTQPPSVSAAPGQKVTISCSGSSSNIGNWYVSWYQQLPGTAPKLLIYDNNKRPSGIPDRFSGSKSGTSATLGITGLQTGDEADYYCGTWDSSLSAPWVFGGGTKVTVLGAAAGAGGDYKDDDDKGAAAHHHHHH	0.68	13.5	10.9	3.21	13.4	3.62	10	15.6	–
NYA-2045 (scFv, also called NYA-2045 tag adduct) scFv: GEVQLVESGGGLVQPGGSLRLSCAASGFSIRSYDIHWVRLAPGKGLEWVATISYDGSQKYYADSVKGRFTISRDESKNTLYLQMNSLRAEDTAVYHCARGSSGHYEAFDIWGQGTLVTVSSGGGGSGGGGSGGGGSQSVLTQPPSASGTPGQRVTISCSGSSSNIGNWYVSWYQQLPGTAPKLLIYDNNKRPSGVPDRFSGSKSGTSASLAISGLQSEDEADYYCGTWDSSLSAPWVFGGGTKLTVLGAAAGAGGDYKDDDDKGAAAHHHHHH	0.53	8.8	7.46	–	8.8	1.99	7.35	9.98	–
NYA-2047 (scFv) scFv: GQVQLVESGGGVVQPGRSLRLSCAASGFSIRSYDMHWVRQAPGKGLEWVATISYDGSQKYYADSVKGRFTISRDNSKNTLYLQMSSLRAEDTAVYHCARGSSGHYEAFDIWGQGTLVTVSSGGGGSGGGGSGGGGSQSVLTQPPSVSAAPGQKVTISCSGSSSNIGNWYVSWYQQLPGTAPKLLIYDNNKRPSGIPDRFSGSKSGTSATLGITGLQTGDEADYYCGTWDSSLSAPWVFGGGTKVTVLGAAAGAGGDYKDDDDKGAAAHHHHHH	0.48	7.34	6.09	0.86	7.07	–	6.61	9.54	–
NYA-1143 (scFv) scFv: GEVQLVESGGGVVQPGRSLTPSCSASGFSIRSYDIHWVRLAPGKGLEWVATISYDGSQKYFADSVKGRFTIFRDESENMVYLQMSGLRVEDTAVYHCARGSSGHYEAFDIWGQGTMVTVSSGGGGSGGGGSGGGGSQSVLTQPPSVSAAPGQKVTISCSGSSSNIGNWYVSWYQQLPGTAPKLLIYDNNKRPSGIPDRFSGSKSGTSATLGITGLQTGDEADYYCGTWDSSLSAPWVFGGGTKVTVLGAAAGAGGDYKDDDDKGAAAHHHHHH	–	11.9	10.2	–	12.9	–	8.74	15.1	3.15
NYA-2023 (scFv) scFv: GEVQLVESGGGVVQPGRSLTPSCSASGFSIRSYDIHWVRQAPGKGLEWVATISYDGSQKYFADSVKGRFTIFRDESENMVYLQMSGLRVEDTAVYHCARGSSGHYEAFDIWGQGTMVTVSSGGGGSGGGGSGGGGSQSVLTQPPSVSAAPGQKVTISCSGSSSNIGNWYVSWYQQLPGTAPKLLIYDNNKRPSGIPDRFSGSKSGTSATLGITGLQTGDEADYYCGTWDSSLSAPWVFGGGTKVTVLGAAAGAGGDYKDDDDKGAAAHHHHHH	0.72	6.74	4.92	2.48	7.51	4.72	5.4	10.8	–
NYA-2143 (scFv) scFv: GEVQLVESGGGVVQPGRSLTPSCSASGFSIRSYDIHWVRLAPGKGLEWVATISYDGSQKYFADSVKGRFTIFRDESENMVYLQMSGLRVEDTAVYHCARGSSGHYEAFDIWGQGTMVTVSSGGGGSGGGGSGGGGSQSVLTQPPSVSAAPGQKVTISCSGSSSNIGNWYVSWYQRLPGTAPKLLIYDNNKRPSGIPDRFSGSKSGTSATLGITGLQTGDEADYYCGTWDSSLSAPWVFGGGTKVTVLGAAAGAGGDYKDDDDKGAAAHHHHHH	2.72	13.2	10.3	7.19	12.9	–	9.69	14.5	–
NYA-1163 (scFv) scFv: GEVQLVESGGGVVQPGRSLTPSCSASGFSIRSYDIHWVRLAPGKGLEWVATISYDGSQKYFADSVKGRFTIFRDESENMVYLQMSGLRVEDTAVYHCARGSSGHYEAFDIWGQGTMVTVSSGGGGSGGGGSGGGGSQSVLTQPPSVSAAPGQKVTISCSGSSSNIGNNYVSWYQQLPGTAPKLLIYDNNKRPSGIPDRFSGSKSGTSATLGITGLQTGDEADYYCGTWDSSLSAPWVFGGGTKVTVLGAAAGAGGDYKDDDDKGAAAHHHHHH	0.53	–	–	0.57	–	–	6	4.01	0.62
NYA-2035 (scFv) scFv: GEVQLVESGGGVVQPGRSLTPSCSASGFSIRSYDIHWVRLAPGKGLEWVATISYDGSQKYFADSVKGRFTIFRDESENMVYLQMSGLRVEDTAVYHCARGSSGHYEAFDIWGQGTMVTVSSGGGGSGGGGSGGGGSQSVLTQPPSVSAAPGQKVTISCSGSSSNIGNWKVSWYQQLPGTAPKLLIYDNNKRPSGIPDRFSGSKSGTSATLGITGLQTGDEADYYCGTWDSSLSAPWVFGGGTKVTVLGAAAGAGGDYKDDDDKGAAAHHHHHH	0.6	8.8	5.81	–	8.95	5.83	6.41	11.5	–
NYA-1154 (scFv) scFv: GEVQLVESGGGVVQPGRSLTPSCSASGFSIRSYDMHWVRQAPGKGLEWVATISYDGSQKYFADSVKGRFTIFRDESENMVYLQMSGLRVEDTAVYHCARGSSNHYEAFDIWGQGTMVTVSSGGGGSGGGGSGGGGSQSVLTQPPSVSAAPGQKVTISCSGSSSNIGNNYVSWYQRLPGTAPKLLIYDNNKRPSGIPDRFSGSKSGTSATLGITGLQTGDEADYYCGAWDSSLSAPWVFGGGTKVTVLGAAAGAGGDYKDDDDKGAAAHHHHHH	–	9.49	8	6.63	9.36	6.08	11.9	11.2	–
NYA-2048 (scFv, also called NYA-2048 tag adduct) scFv: GQVQLVESGGGVVQPGRSLRLSCAASGFSIRSYDMHWVRQAPGKGLEWVATISYDGSQKYYADSVKGRFTISRDNSKNTLYLQMSSLRAEDTAVYHCARGSSGHYEAFDIWGQGTLVTVSSGGGGSGGGGSGGGGSQSVLTQPPSASGTPGQRVTISCSGSSSNIGNWYVSWYQQLPGTAPKLLIYDNNKRPSGVPDRFSGSKSGTSASLAISGLQSEDEADYYCGTWDSSLSAPWVFGGGTKLTVLGAAAGAGGDYKDDDDKGAAAHHHHHH	0.51	5.36	4.2	0.63	6.14	–	4.11	7.75	0.67
